Assay results from the DeepSol protein solubility set.

Experiment: soluble on expression in E. coli; label from the status in PepcDB or PDB records

Sequence: MGSDKIHHHHHHYRPLFDKDLSNADYDSSVWTFKNGILTATADQSIWTKVQYENFILDLEFKTDVNTNSGVVIYCTDKGNWIPSSIEIQIADDHHPEWQSYPEYWRCGSIYGHKGANEQLVVKKPGEWNRMIITAKGQQIDIELNGKHIVSANLADWTSGTTNPDGTEIPEWLPIPYANMPTKGYIGLQGKHGESNIWFRNIQLKQL
- soluble on expression in E. coli: not soluble

Sequence: MTDVKTQNAISLKGSAQLVKEFFHFGLNSILYQRALYPSDSFKREKKYGLTLWVAHEKKLQAFMDPLLQQVEYWLAKRQLKRLVMVISEVKTKEVVERWQFDIHTENLAEEGYEIV
- soluble on expression in E. coli: not soluble

Sequence: MVRRIAVFSLYNEHGIADDYVIFLLEKLREFVERIVVVSNGNLSKLSEIAIKASCDQLLVRENVGFDVWGYKTGIDAVGFDALSEYDELILLNDTCYGPLFPFSEMFSEMERRDCDFWGSAAHSKMTPNPFTGTGHLPRHLTANFIAVREKMLKSRAFKTYWENLPAIKTYIDAIMLHESQFTKHFTDLGYSAEAYVDPDKYGSHYPAFINVDETIINRFPLLKRRPFFHDPTFLNAQGIDLPRALRVLEETSDYDLNLIWRNVLRTSELRNLNTNAALMSVLPDERAKDDDAPSDYGKIAVCAHIYYTDMLEEILALTGNIPVPYDFIATTDTPDKKAEIEATLAKRPGVKNVIVRVVEKNRGRDMSSLFISLRDLLVDDRYDLVCRLHTKKSPQVQASRSNLFKRHMLENLLNTRGYVHNVLDMFHDNPSVGLAVPPVVHISYPTMGHAWFFNRPKVEETARLLNIKVKFDHDTPVAAYGTMFWFRPRALRKMFEHKWKWEDFNAEPNHVDGGLAHVLERLIAYAAQDAGYLEHHHHHH
- soluble on expression in E. coli: soluble

Sequence: MGSDKIHHHHHHPVWNPDNGNGTFTNPIMWGDWPDPDVIRVGDDFYFVSTSMHYVPGCPIATSKDLVNWKMAGYAVDRYDEDARYDLKGGDRYLRGSWAATIRHHNGKFYVGFCTPSWEGEGPGHFSICIADDVKGPWERTIFPEYLYDPGLLFDDDGKVYVFHGQGTLYVTELASDAKSVKGEKVKIWDKRFKNAHEFGGGYGMEGAHAYKINGKYYLTCPAGGTEGWQICLRSDNIYGPYEHKLIMNDSGSYPPNGLHQGGMVQLKNGDWWFIIMQDRGPIGRVPHLVPVKWVDGWPMLGSGGKDIITYPKPEVGKTYPFASPATTDEFNTSSLGLQWQWNHNPDNSRWSLKERKGHMRLKASYAESLKTARNTLTQRVQGPSSEATVELDVSGLKDGNVAGFGVFEFPYAYVAVEQTNGEKKIVMCNDGQTIETIDRFEGNKIWIRARVMDVGFRAVFYYSTDGKYFLPIGNELSMGLGLVWTANRFALFNFSKEKAGEDGYTDFNWFRFTNK
- soluble on expression in E. coli: not soluble

Sequence: MGHHHHHHSHLPAIRTLQSLAFHPNVTFIIGENGTGKSTLLEGIAIALGFNAEGGTKNFRFSTNDSHSSLHEYLRISKSFNTPSDGFFLRAESFYNVASYIDEIDADLEARGNPVIDSYGGISLHEQSHGESFFSLFMNRFSGQGLYILDEPEAALSPMRQLSMLIRMHELAEQGSQFVIATHSPILMAYPESTIYSLTQEG
- soluble on expression in E. coli: not soluble

Sequence: MNYAEICIIKRDGKREDFSISKIKNAIGKAFHASGIDNEDKLIAEITMRVISNFVSPTISVEEIQDLVEKELMKVRPEVAKKYIIYREWRNTERDRKTQMKHIMDGIVAIDKNDVNLSNANMSSHTPAGQMMTFASEVTKDYTYKYLLPKKYAEAHQLGDIHIHDLDYYPTKTTTCIQYDLDDLFERGFRTKNGSIRTPQSIQSYATLATIIFQTNQNEQHGGQAIPAFDFFMAEGVRKTFRKHLKTLTEFYIEVEGKEPGTEALKKIEEKAYAMTRKDTHQAMEGFIHNLNTMHSRGGNQVVFSSINYGTDTSPEGRMVIEELLKATIEGLGTRGEVPVFPIQIFKVKDGVSYSEEDYKKAMENFEAALEGKMEFQAPNFDLFLKACRTTAKALFPNFMFLDTPYNKNEKWDIKDPKRYRYELATMGCRTRVYENIAGEKSSLGRGNLSFTTMNMPRLAIEARIKAESLEESGKKEAIERKAKEIFIESVHALSELIAEQLYARYQYQRTALARQFPFMMGNDVWKGGGKLSPNDQVGDVLRQGTLGIGFIGGHNAMMALYGEGHAHSQKAWDTLFEAVTEMNKVADEYKQKYQLNFSVLATPAEGLSGRFTRMDRRKYGIIPGVTDNDYYVNSFHVDVKEPITITEKIKREAPFHAITRGGHITYVELDGEAQKNVKAIAKIVKVMHDEGIGYGSINHPVDTCQACGYKGVIYDKCPVCQSENIMRMRRITGYLTGDLSTWNSAKRAEERDRVKHG
- soluble on expression in E. coli: not soluble

Sequence: MEEEFSMFIMSMSNSMSSLWPAPIEMDSIDEGTENVANIASRWSTCCNIIRLHIEQMIGCEVDVAVAKSTDLGVSMTRGNSDSKLEPISTLLSTISKTIESNGEANAEFAIREIEKMNKSCETEYKIKKFHWFIDVEMFLNIKLALLDREFPPNLTVYVIGELKTLYDDYEAAKEVATNFERSSVNLRFLLCPADLKELNREIIAEKRQKMSEKEIICRFGSDKFKIKLFKKQKIGSHVTLIDSISFLGFLPEIELCRQGFLGSKRSNKLKMDITTDSKLGNKILFSLSQYLLNETKRPQTALFSFSSKPKLRGFCIMVAYESENDETSITLIQLKASLGKCLWKTLKFVNQSGEHSRPLPDDSYEQIAPIERKQLKRRLSRIERIASSVEEKRAQFEAFAREYDALDARDAFMKFTSTWQTDQGLLTAPTPFEDDNNNK
- soluble on expression in E. coli: not soluble

Sequence: SLTTLKTMTRVQLGAMGEALAVDYLTSMGLRILNRNWRCRYGELDVIACDAATRTVVFVEVKTRTGDGYGGLAHAVTERKVRRLRRLAGLWLADQEERWAAVRIDVIGVRVGPKNSGRTPELTHLQGIG
- soluble on expression in E. coli: soluble

Sequence: MTDVEKPVDNSGTLIDDILSPLKGVNEDLNVLVLGGDKVNNNTDTMMLVNFKPSTSKVSILSIPRDTKVKINGKKAKINSAYPTGGGELAVQTVSELFGIDVKYYVFVDTSSFRKIIDILGGVDYYVPVDMDYDDPLQGLSIHIKKGQHHFDGAMAEKFMRFRQYNNGRVNEYYDGSDLKRIDAQQNFIRELVRQKLNIFYLTKVDDIASTIFSNIDTNLNMSEVLKLTGSVSKVQADSINMLKVPGKSVLDGAWYYVIDSQETDKIINEYFRTRYKLEHHHHHH
- soluble on expression in E. coli: soluble

Sequence: PSDTVTLFMSGDGGWRDLDKVVAGDMAKMGYPVVGIDVLRYYWEHKTPEQTAADLTDLMNHYRQKWGTKRFILAGYSFGADVMPAIYNRLAADDQNRVDAIILLAFAR
- soluble on expression in E. coli: not soluble

Sequence: MLERTQVFVDTSYLLASFYNSWETGARAQLEIDLPEVVGVLGRMIEQQLKQPVQRQMWYDGIPDSGPHRYQRALRTCDGVQLRAGQLIEWGERRTQKAVDTRLVADLVLAGVRGQCSDIVLVSGDADMIPGVQEAANAGLRVHLYGFGWDSMSSQLRHCCDTTTILDPREDFAECMQLQVLEGPLPPVVRVKPINDAEPIEDLDFTPVPGVASPFEEVSAKDEKFSPRPSEPAEALSEQVCEAQYEISKHEGQTADSGEITESFEAAEIKVTEFFGEPAAPVAESGVEAPTPEAPTVPEAAKPTPAKPKTPKAEPQKQESPKPGTPKPKAPSPADIPPKAPADTEEHSEVEAEIEDSRPKIPSPSMMAPRRKLRSRYVPLPNEVWATAGFQTPYDVGQQYASWWFENAATSTQRDQAHLLSGGGLPPEIDRPLLQFACETLHEYTLTEAQRVALRDGFHSGIRGVLLNQRDS
- soluble on expression in E. coli: soluble

Sequence: MGSDKIHHHHHHMLLSSDASAFLSPRTVQASRMKPLRIGLFTDTFLPDQNGIVTSVGLLSDELRARGHHVDVVAPFFPEQQDTRPDVRRAPSVRYIFLPTYRLAWPTRKDFEQKYDLIHTHTPLTLGLAGARLARKWDVPHVATYHTHIEAYTHYVPGLTLLQKHTRVVTRLMGLYYRRADAVITPTAAMLDVTREMGVRNPVVIPTSVKPEVLQAAPPVENPWPAGTRRLLTVGRLAREKRFDLVLDTLANLPDAHLVVLGEGPEREHLIRHAERLGVAARVSFLGVKPWTEIGAYYRLAELFLFASDTETQGLVLQEAQLMGVPVIAVGARGTLSGVAQGRSGYLVAPGDVAALTRHAQAILADGQLWRRLSEGARAFGAAWTPGGVAERVLDVYASVLGVPREIPFPEAASPRNTLAYDR
- soluble on expression in E. coli: not soluble

Sequence: SHPGIDSMSSNINCENNPFSFYGNPHKSVIIHGKEGTELLKEKGEDCKTFENSQQYFLWCCVQQQMYHYQLLSTAFASYGFEPPRIPGAFPHHIPPIFNGSMKCLRDREVFNQSGFLYVNVSPDTYQETRQEAPVEQRNQWSEKSKTTSKKSICKVLFECTNSSLLENAENRSIFSKQGSGSHVGENSKNPSEDSGQSGRLSQNATAEHNVLEKHLQEEYQMAKNTVNESFDSLKECSAASVIKGSYLLSQVVHIPEDAIEPEIPPDLQGPGGHVFLRMLSRSWRQYKRALEHNE
- soluble on expression in E. coli: soluble

Sequence: MSVLDLVALSEGMTAGEAIAHSVRAAQIAEEHNYARFWVAEHHNSEGLASSATTLLMGHIAGHTSRIRVGSGGIMMPNHSALHVAEELGTLEAIYPGRIEAGLGRAPGTDPMTARELGRASSLVDDVLSTIVSLQNYLDTPEERPNIIAHPGINSRVPLFMLGSSLNGAAMAAKLDLPFAFASHFAPFQMGPAIASYRELAANPYVMAAANVLVCDTEEEAEFQISTLHQMFAGIVTNSRGKLAPPVRNLKDKLDPMIWKHIEDSLEMTFIGTAESVVLQLQEFADRYKLDEIITVTYSYDPEVRFRSIAALGT
- soluble on expression in E. coli: not soluble

Sequence: MGSDKIHHHHHHMTNPISLKDPLKLPCGAVIKNRLIKSAMSDSLADGEGNATNLQARLYERWAKSGLGLSVIGEVQVDPRFPEKPGNLVLADGMDLAALRELTSRAAINGAHIWPQLSHAGGLSHLPISQPKGPSALNISQFQCAGMSIDEIYQLPDMYAKSAMLAKDVGFTGVQIHAGHGFLLSQFLSPLFNHRQDQYGGSIEARCRIIVEIIAKVRSAVGDSFPIGIKINSTDQLEGGLTQEDALAAIRILDQTSLDLIEISGGSYFPGAKSSSDSSTKGPYFAEFAATAKRLSNVPIAVTGGFKTYAQALKVIESGAVDFVGLARALVITPELAKDWLIGTATAPSFPRFKAPPQGGITAWFTMLLTAIANDSEESFELELLPALHLYEELDDARCDKWMQKFEIK
- soluble on expression in E. coli: not soluble

Sequence: MGSDKIHHHHHHMHLDNEADHHSENKAEAPGIQPAVTRNVADISPQIAQCAVEWLVELQAADHDEATHEAFQRWLAAHPDHKLAWQHIETVNTRFNGLTSPLGSAVAKAVLTPRRSLKRRQIIKTLVVILFAGSTGWWADEKIPWRAWTADERTHIGQRRNITLADGSRVVLNTDTAINIRFTANERRLQLVRGEILVTTNQDSASIVRPFIVEIAQSELRPLGTRFTIHQQTTSNRLSVFEGAVEIRLRQDINYRHIVQAGEQVDFSNQGIHEIHPADDTSTAWSNGMIIASSMRLADFLAELDRHRPGKLNCDPAVADLRVSGTYPLTDPEDILDALQTTLPVKIQYFTRYWVTVRPAS
- soluble on expression in E. coli: not soluble

Sequence: MADFAARLNKLFDTVHPPGRKPHTNAEVAAALIADGHQISKPYISQLRSGQRTNPSDETVAAFARFFKVKPDYFFNDIYAAKIDHDLELLSQLQGYGLRKLSSRAFDLSEESQNLLTTMAEKLRASEGLPEVPPDASR
- soluble on expression in E. coli: not soluble

Sequence: MGHHHHHHSHMLDVYACHCTLCQKWSGGIAMYLEACGQPQLAPLSPEPPYFSSSSRGERYFCSGCGCPLWFRLTDTDRYFIPWTLLELNEVDRRRLILAAEIYTETQPAFWRLTGQYARLSGKEVEEMDSPCQLAH
- soluble on expression in E. coli: not soluble

Sequence: GPGSMVRCSRPAFRQVCRAWGTRVSYTHMLMAESFVKSPHARHAEFARYEGENRLVAQLAAKSGPAAAQAALLLRPYCDGIDLNCGCPQRWAMKEGIGAALLDQPERVADMVRSIRNAMPDGSTAPMIVGNGGEYSSCTSAVPPFLPCVVKMRIKDDLRRSVDFARQCEAAGVSWLTVHGRTPTCHSSTAVQFEAVKLIRENLSVPVVLNGGVTDVSTAMEAALRTGCGGLMSANGLLDNPAMFYCGASRAAMEAEMSFVTSCWGRPPRTCDPVSPPAETAAPDVFSEVFSPVRPVSFLWAPDRSNAEAVLLRYTVADMWQAAVTPREVISDFMRAAMRTDLVVPTTVQQVLRMARLYVSPAERNHLALLRSNLSVLNALQEIDVYVESGRIACE
- soluble on expression in E. coli: not soluble
